This note sets out measurements from patent US20180125988.

Data set [1] deals with T1, AC1254 (CCD1-BSRS1-AE713).
T1 chain: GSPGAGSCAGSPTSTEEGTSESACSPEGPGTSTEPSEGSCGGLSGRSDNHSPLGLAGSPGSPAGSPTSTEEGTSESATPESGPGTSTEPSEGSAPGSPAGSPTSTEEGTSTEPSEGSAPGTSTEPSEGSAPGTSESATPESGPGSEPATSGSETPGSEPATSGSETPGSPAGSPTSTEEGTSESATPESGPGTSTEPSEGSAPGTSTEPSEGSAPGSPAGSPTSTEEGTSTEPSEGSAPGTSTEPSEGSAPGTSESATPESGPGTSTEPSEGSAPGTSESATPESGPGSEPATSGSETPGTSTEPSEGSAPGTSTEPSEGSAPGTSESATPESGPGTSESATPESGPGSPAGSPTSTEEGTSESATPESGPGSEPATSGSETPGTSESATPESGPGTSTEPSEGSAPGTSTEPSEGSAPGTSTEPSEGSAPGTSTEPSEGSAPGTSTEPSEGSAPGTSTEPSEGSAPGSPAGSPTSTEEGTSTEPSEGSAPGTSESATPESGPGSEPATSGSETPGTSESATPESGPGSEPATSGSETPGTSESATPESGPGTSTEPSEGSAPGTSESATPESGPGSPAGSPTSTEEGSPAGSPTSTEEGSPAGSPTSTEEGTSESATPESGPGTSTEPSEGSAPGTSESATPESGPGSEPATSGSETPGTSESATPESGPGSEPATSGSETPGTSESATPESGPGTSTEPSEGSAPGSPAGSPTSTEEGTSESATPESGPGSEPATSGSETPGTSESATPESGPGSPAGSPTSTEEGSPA

The target in data set [2] is T2, XTEN_AE864.
T2 chain: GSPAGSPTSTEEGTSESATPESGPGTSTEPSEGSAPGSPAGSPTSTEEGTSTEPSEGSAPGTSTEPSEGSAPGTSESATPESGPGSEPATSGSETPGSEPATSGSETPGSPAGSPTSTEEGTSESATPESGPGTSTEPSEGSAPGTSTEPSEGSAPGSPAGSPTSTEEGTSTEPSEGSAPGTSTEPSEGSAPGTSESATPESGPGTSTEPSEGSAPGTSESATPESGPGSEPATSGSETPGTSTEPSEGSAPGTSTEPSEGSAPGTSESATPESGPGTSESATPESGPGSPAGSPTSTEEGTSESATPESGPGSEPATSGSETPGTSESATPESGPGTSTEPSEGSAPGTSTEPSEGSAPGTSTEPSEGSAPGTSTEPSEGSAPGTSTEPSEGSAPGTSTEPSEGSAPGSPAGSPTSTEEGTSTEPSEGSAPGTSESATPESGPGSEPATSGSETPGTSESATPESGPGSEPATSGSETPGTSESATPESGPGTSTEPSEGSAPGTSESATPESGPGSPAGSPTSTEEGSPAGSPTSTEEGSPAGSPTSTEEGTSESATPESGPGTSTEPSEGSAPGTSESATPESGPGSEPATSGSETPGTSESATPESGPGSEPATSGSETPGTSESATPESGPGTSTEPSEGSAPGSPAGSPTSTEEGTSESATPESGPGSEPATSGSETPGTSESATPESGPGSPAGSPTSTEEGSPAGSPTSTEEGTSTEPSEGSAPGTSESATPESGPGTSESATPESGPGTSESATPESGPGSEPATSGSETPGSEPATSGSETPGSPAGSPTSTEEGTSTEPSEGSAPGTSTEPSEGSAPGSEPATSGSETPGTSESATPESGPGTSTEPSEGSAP

B1: recombinant human MMP-7 (protein)
chain: YSLFPNSPKWTSKVVTYRIVSYTRDLPHITVDRLVSKALNMWGKEIPLHFRKVVWGTADIMIGFARGAHGDSYPFDGPGNTLAHAFAPGTGLGGDAHFDEDERWTDGSSLGINFLYAATHELGHSLGMGHSSDPNAVMYPTYGNGDPQNFKLSQDDIKGIQKLYGKRSNSRKK
As to B1, the “proteolytic cleavage at the PCM (SDS-PAGE, C4 RP-HPLC); enzyme:substrate 1:200, 2 h, 37 C” value in data set [1] is on record as “all proteases tested here cleaved the construct as intended, with varying degree of catalytic efficiency”.

B2: human neutrophil elastase (protein)
chain: IVGGRRARPHAWPFMVSLQLRGGHFCGATLIAPNFVMSAAHCVANVNVRAVRVVLGAHNLSRREPTRQVFAVQRIFENGYDPVNLLNDIVILQLNGSATINANVQVAQLPAQGRRLGNGVQCLAMGWGLLGRNRGIASVLQELNVTVVTSLCRRSNVCTLVRGRQAGVCFGDSGSPLVCNGLIHGIASFVRGGCASGLYPDAFAPVAQFVNWIDSIIQ
For the protein B2, in data set [2], the “proteolytic degradation (SDS-PAGE), elastase:XTEN 1:100, 2 h, 37 C” value is on record as “XTEN_AE864 was completely digested by neutrophil elastase at the 1:100 molar ratio” and the “proteolytic degradation (SDS-PAGE), elastase:XTEN 1:1000, 2 h, 37 C” value is “Partial degradation was observed for XTEN_AE864 when incubating with neutrophil elastase at the 1:1000 molar ratio”.

B3: recombinant human matriptase (protein)
chain: VVGGTDADEGEWPWQVSLHALGQGHICGASLISPNWLVSAAHCYIDDRGFRYSDPTQWTAFLGLHDQSQRSAPGVQERRLKRIISHPFFNDFTFDYDIALLELEKPAEYSSMVRPICLPDASHVFPAGKAIWVTGWGHTQYGGTGALILQKGEIRVINQTTCENLLPQQITPRMMCVGFLSGGVDSCQGDSGGPLSSVEADGRIFQAGVVSWGDGCAQRNKPGVYTRLPLFRDWIKENTGV
B3: the “proteolytic cleavage at the PCM (SDS-PAGE, C4 RP-HPLC); enzyme:substrate 1:12.5, 2 h, 37 C” value in data set [1] is given as “all proteases tested here cleaved the construct as intended, with varying degree of catalytic efficiency”.

B4: recombinant mouse MMP-9 (protein)
chain: FQTFKGLKWDHHNITYWIQNYSEDLPRDMIDDAFARAFAVWGEVAPLTFTRVYGPEADIVIQFGVAEHGDGYPFDGKDGLLAHAFPPGAGVQGDAHFDDDELWSLGKGVVIPTYYGNSNGAPCHFPFTFEGRSYSACTTDGRNDGTPWCSTTADYDKDGKFGFCPSERLYTEHGNGEGKPCVFPFIFEGRSYSACTTKGRSDGYRWCATTANYDQDKLYGFCPTRVDATVVGGNSAGELCVFPFVFLGKQYSSCTSDGRRDGRLWCATTSNFDTDKKWGFCPDQGYSLFLVAAHEFGHALGLDHSSVPEALMYPLYSYLEGFPLNKDDIDGIQYLYGRGSKPDPRPPATTTTEPQPTAPPTMCPTIPPTAYPTVGPTVGPTGAPSPGPTSSPSPGPTGAPSPGPTAPPTAGSSEASTESLSPADNPCNVDVFDAIAEIQGALHFFKDGWYWKFLNHRGSPLQGPFLTARTWPALPATLDSAFEDPQTKRVFFFSGRQMWVYTGKTVLGPRSLDKLGLGPEVTHVSGLLPRRLGKALLFSKGRVWRFDLKSQKVDPQSVIRVDKEFSGVPWNSHDIFQYQDKAYFCHGKFFWRVSFQNEVNKVDHEVNQVDDVGYVTYDLLQCP
Consider B4, for which the “proteolytic cleavage at the PCM (SDS-PAGE, C4 RP-HPLC); enzyme:substrate 1:6711, 2 h, 37 C” value in data set [1] was “all proteases tested here cleaved the construct as intended, with varying degree of catalytic efficiency”.
